Tests used:
[1] = system: iPSCs derived mammary gland organoids; assay: Flow cytometry of progenitor markers, BMP4 and RA single or combined, 42 days and 31 days protocols; format: cell-based, human; settings: 20 ng/ml BMP4, 1 μM RA, single or combination, compared to the control condition
From the text: In order to generate milk bioactives that closely resemble those found in human breast milk, different methods using bone morphogenetic protein 4 (BMP4) and retinoic acid (RA) in 42 days and 31 days as a shortened time-course protocol were established in a 3D-platform using iPSCs derived mammary gland organoids as a biomimetic model of the human mammary gland (FIG. 9).

[2] = system: human-induced pluripotent stem cell (hiPSC) line 603; assay: Flow cytometry quantification of mammary gland progenitor markers after BMP4 treatment, 3D-organoid setting; format: cell-based; settings: 20 ng/ml BMP4, day 0 to day 3, flow cytometry
Experimental: (§1) Methods: The human-induced pluripotent stem cell (hiPSC) line 603 was purchased from Fujifilm Cellular Dynamics, Inc (FCDI) and used for the 3D-differentiaion of mammary gland progenitors. Briefly, 5.5 million dissociated iPSCs were plated in the 6 well-plates (ultra-low attachment) containing 4.5 mL aggregation media using a planar shaker platform (set at 95 RPM). BMP4 (314-BP-050, Bio-Techne AG) at different concentrations was added to the culture media between day 0 and day 3.

[3] = system: iPS-derived mammary-gland cells; assay: LC-MS/MS targeted proteomic analysis of osteopontin protein secretion; format: cell-based, human; settings: also detected with control differentiation method
From the text: Human osteopontin peptides—GDSVVYGLR and -YPDAVATWLNPDPSQK were specifically detected in the cell culture supernatant by LC-MS/MS (FIG. 10).
Osteopontin protein secretion was detected in the media of cultures of iPS-derived mammary-gland cells using control differentiation method, or with bone morphogenetic protein 4 (BMP4), retinoic acid (RA) and in the combination of the two factors.

iPSC cells = assay: RNA expression of ESRRA, KRT14 and MUC1 at end-stage of 3D-mammary gland differentiation; format: cell-based, human; settings: day 30, 33 and 35, compared to the control sample
Experimental: The effect of BMP4 at the end-stage of 3D-mammary gland differentiation of iPSC cells was assessed using estrogen related receptor alpha (ESRRA), Keratin 14 (KRT14) and MUC1 for their expression profiles.

[4] = system: human-induced pluripotent stem cell (hiPSC) line 603; assay: Nanostring RNA expression of lineage markers after BMP4 treatment, 3D-organoid setting; format: cell-based
Experimental: as §1
Results: iPSC cells were tested with different concentrations of BMP4 to induce non-neural ectodermal differentiation (FIG. 6a, b). […] Expression of human TFAP2A and TFAP2C (AP2 Gamma) as predominant non-neural ectodermal markers were increased at day 10 of differentiation using Nanostring analysis compared to the control sample (FIG. 6g-h). Moreover, expression levels of human specific neural ectoderm markers, such as paired box gene 6 (PAX6), orthodenticle homeobox 2 (OTX2) and SRY-box transcription factor 11 (SOX11) were decreased during differentiation (FIG. 6i-k).

B1: BMP4: bone morphogenetic protein 4 (314-BP-050, Bio-Techne AG), added to the culture media (protein, UniProt P12644 293-408, looked up)
Bone morphogenetic protein 4: SPKHHSQRARKKNKNCRRHSLYVDFSDVGWNDWIVAPPGYQAFYCHGDCPFPLADHLNSTNHAIVQTLVNSVNSSIPKACCVPTELSAISMLYLDEYDKVVLKNYQEMVVEGCGCR
Q: For B1, which “expression of mammary gland progenitor markers EpCAM, CD49f, MUC1 and GATA3 (induced or maintained)” value [1] is on record?
A: can induce the expression

Q: And the “expression of mammary gland progenitor markers EpCAM (CD326), CD49f, MUC1 (CD227) and GATA3” value [2]?
A: significantly induced

Q: And the “osteopontin protein secretion in culture media” value [3]?
A: detected

Q: And the “RNA expression levels of ESRRA, KRT14 and MUC1” value (iPSC cells)?
A: increased

Q: What about the “expression of luminal marker KRT18 and osteopontin (OPN)” value ([4]; RNA expression level) of the same molecule?
A: can induce the expression

Q: And the “expression of human TFAP2A and TFAP2C (non-neural ectodermal markers)” value ([4]; day 10 of differentiation, compared to the control sample)?
A: increased

Q: And the “expression levels of neural ectoderm markers PAX6, OTX2 and SOX11” value ([4]; during differentiation)?
A: decreased

Reference: patent US20250297215A1, “METHOD FOR PRODUCING MILK LIKE PRODUCTS” (SOCIETE DES PRODUITS NESTLE S.A., priority 2021, published 2025)
